Changes are numbered by the printed parent chain.
B1: B42 (antibody, V domains shown)
VH: QVQLQQPGAELVKPGASVKVSCKASGYTFTSYWMHWVKQRPGQGLEWIGRIHPSDSDTNYNQKFKDKATLTVDKSSSTAYMQLSSLTSEDSAVYFCVIDHYFDYWGQGTTLTVSS
VL: DIVMSQSPSSLAVSAGEKVTMSCKSSQSLLNSRTRKNYLAWYQQKPGQSPKLLIYWASTRESGVPDRFTGSGSGTDFTLTISSVQAEDLAVYYCKQSYNLYTFGGGTKLEIK
B2: B04 (antibody, V domains shown)
VH: QVQLKQSGAELVRPGASVKLSCKASGYTFTDYYITWVKQRPGQGLEWIARICPGSGNTFYNEKFMGKATLTAEKSSSTAYMQLSSLTSEDSAVYFCARRGTLLYAFAYWGQGTLVTVSA
VL: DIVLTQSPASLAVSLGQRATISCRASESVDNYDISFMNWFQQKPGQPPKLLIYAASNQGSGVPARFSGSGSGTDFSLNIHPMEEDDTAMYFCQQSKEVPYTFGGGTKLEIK
B3: A11 (antibody, V domains shown)
VH: QVQLQQPGAELVKPGTSVKLSCKASGYTFTSYWMHWVKQRPGQGLEWIGMIHPNSGNTNYNEKFKSKATLTVDKSSSTAYMQLSSLTSEDSAVYYCADLGAWFAYWGQGTLVTVSA
VL: QIVLTQSPAIMSASPGEKVTMTCSASSSISYMHWYQQKPGTSPKRWIYDTSKLASGVPARFSGSGSGTSYSLTISSMEAEDAATYYCHQRSSYPWTFGGGTKLEIK
B4: B06 (antibody, V domains shown)
VH: QAYLQQSGAELVRPGASVKMSCKASGYTFTSYNMHWVKQTPRQGLEWIGAFYPGNGDTSYNQKFKGKATLTVDKSSSTAYMQLSSLTSEDSAVYFCARDGYPYYYAMDYWGQGTSVTVSS
VL: DIKMTQSPSSMYASLGERVTITCKASQDINSFLSWFQQKPGKSPKTLIYRANRLVDGVPSRFSGSGSGQDYSLTISSLEYEDMGIYYCLQYDEFPWTFGGGTKLEIK
B5: B23 (antibody, V domains shown)
VH: EVKLEESGGGLVQPGGSMKLSCAASGFTFSDAWMDWVRQSPEKGLEWIAEIRNKANNHATYYAESVKGRFTISRDDSKSSVYLQMNSLRAEDTGIYYCTRGLTGPYFDYWGQGTTLTVSS
VL: DIVMTQSQKFMSTSVGDRVTITCKASQNVRTAVAWYQQKPGQSPKALIYLASNRHTGVPDRFTGSGSGTDFTLTISNVQSEDLADYFCLQHWNYPLTFGAGTKLELK
B6: B43 (antibody, V domains shown)
VH: DVQLQESGPGLVKPSQSLSLTCSVTGYSITSGYYWNWIRQSPGNKLEWMGYISYDGSNKYNPSLKNRISITRDTSKNQFFLKLNSVTTEDTAIYYCARWDKGAMDYWGQGTSVTVSS
VL: B5 VL with T20S, S65G
B7: B45 (antibody)
chain 1: QVQLQQPGAELVKPGASVKVSCKASGYTFTSYWMHWVKQRPGQGLEWIGRIHPSDSDTNYNQKFKGKATLTVDKSSSTAYMQLCSLTSEDCAVYYCAIWEDYGVFYAMDYWGQGTSVTVSS
chain 2: DIVMTQSQKFMSTSVGDRVSVTCKASQNVGTNVAWYQQKPGQSPKALIYSASYRYSGVPDRFTGSGSGTDFTLTISNVQSEDLAEYFCQQYNSYPLTFGAGAKLELK
B8: B46 (antibody, V domains shown)
VH: QVQLQQPGAELVKPGASVKVSCKASGYTFTSYWMHWVKQRPGQGLEWIGRIHPSDSDTNYNQNFKGKATLTVDKSSSTAYMQLSSLTSEDSAVYYCALDGYYGIWWGQGTLVTVSA
VL: B7 chain 2 with Y91C, A100G, A102T, L106I
B9: A21 (antibody, V domains shown)
VH: QVQLQQSGAELVKPGASVKISCKASGYSFSDYWMNWVKQRPGKGLEWIGQIFPGDGDTNYNGKFKGKAALTADKSSSTAYMQLSSLTSEDSAVYFCARRELNYFDYWGQGTTLTVSS
VL: QIVLTQSPAIMSASPGEKVTMTCSASSSVSYMFWYQQKPGSSPRLLIYDTSNLASGVPVRFSGSGSGTSYSLTVSRMEAEDAATYYCQQWSSYPLTFGSGTKLEIK
B10: B44 (antibody, V domains shown)
VH: QVQLQQPGAELVKPGASVKVSCKASGYTFTSYWMHWVKQRPGQGLEWIGRIHPSDSDTNYNQKFKGKATFTVDKSSSTAYMQLSSLTSEDSAVYYCAIGDGRDFDYWGQGTTLTVSS
VL: DVVLTQTPLSLPVNIGDQASISCKSTKSLLNSDGFTYLDWYLQKPGQSPQLLIYLVSNRFSGVPDRFSGSGSGTDFTLKISRVEAEDLGVYYCFQSNYLPLTFGSGTKLEIK
B11: B01 (antibody, V domains shown)
VH: B10 VH with V18M, F70L, D100G
VL: B10 VL with V56F, L101W, S105G
B12: A16 (antibody, V domains shown)
VH: DVQLQESGPGLVKPSQSLSLTCSVTGYSITSGYYWNWIRQFPGNKLEWMGYISYDGSNNYNPSLKNRISITRDTSKNQFFLKLNSVTTEDTATYYCARFHYGSRPRYWYFDVWGTGTTVTVSS
VL: DIQMTQTTSSLSASLGDRVTISCSASQGIRNYLNWYQQKPDGTVKLLIYYTSSLHSGVPSRFSGSGSGTDYSLTISNLEPEDIATYYCQQYSKLPWTFGGGTKLEIK
B13: A23 (antibody, V domains shown)
VH: QAYLQQSGAELVRPGASVKMSCKASGYTFTSYNMHWVKQTPRQGLEWIGAIYPGNGDTSYNQKFKDKATLTVDKSSSTAYMQLSSLTSGDSAVYFCARDYYGCSYGYFDVWGTGTTVTVSS
VL: B12 VL with R30S, W96Y

Each binder was assayed against SARS-CoV-2 spike RBD (WT) (Severe acute respiratory syndrome …, UniProt P0DTC2) (assay: BLI).

**Q.** Which Kd does the source give for B1 here?
**A.** 91.8 nM

**Q.** For B2, which Kd is on record?
**A.** 100 nM

**Q.** For B3, which Kd is on record?
**A.** 7620 nM

**Q.** B4 was tested. Which Kd did it give?
**A.** 110 nM

**Q.** B5 was tested. Which Kd did it give?
**A.** 211 nM

**Q.** Which Kd does the source give for B6 here?
**A.** 40.7 nM

**Q.** B7 was tested. Which Kd did it give?
**A.** 837 nM

**Q.** For B8, which Kd is on record?
**A.** 282 nM

**Q.** Which Kd does the source give for B9 here?
**A.** 138 nM

**Q.** Which Kd does the source give for B10 here?
**A.** 123 nM

**Q.** With B11 as the binder, how does the Kd read?
**A.** 18.7 nM

**Q.** Which Kd does the source give for B12 here?
**A.** 140 nM

**Q.** For B13, which Kd is on record?
**A.** 850 nM

Source: paper PMC9876794 (2022)
